Data from publication PMC5382714.

What was measured:
Assay in all cases: co-IP
GFP-tagged GRIP1 = GFP-tagged GRIP1 (UniProt P97879)
GFP-tagged Rab4 = GFP-tagged Rab4 (UniProt P20338)
[1] = target: Syntaxin13 (Stx13), endogenous in HEK cells (human (endogenous in HEK293T)) (UniProt Q86Y82)
Sequence of UniProt Q86Y82 (Q86Y82 whole entry): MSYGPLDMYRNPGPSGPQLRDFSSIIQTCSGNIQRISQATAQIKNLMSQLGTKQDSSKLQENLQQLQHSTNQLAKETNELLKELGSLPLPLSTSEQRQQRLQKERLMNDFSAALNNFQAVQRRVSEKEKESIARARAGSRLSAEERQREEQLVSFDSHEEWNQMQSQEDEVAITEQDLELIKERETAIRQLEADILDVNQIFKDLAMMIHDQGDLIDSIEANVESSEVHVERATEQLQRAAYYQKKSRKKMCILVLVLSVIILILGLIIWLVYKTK

Sequence of UniProt P20338 (P20338 whole entry): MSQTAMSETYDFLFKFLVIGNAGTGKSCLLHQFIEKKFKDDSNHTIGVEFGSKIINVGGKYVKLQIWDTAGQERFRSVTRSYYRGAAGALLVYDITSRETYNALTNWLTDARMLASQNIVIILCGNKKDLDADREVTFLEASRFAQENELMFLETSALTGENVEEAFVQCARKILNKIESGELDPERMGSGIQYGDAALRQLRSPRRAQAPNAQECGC
Sequence of UniProt P97879 (P97879 whole entry): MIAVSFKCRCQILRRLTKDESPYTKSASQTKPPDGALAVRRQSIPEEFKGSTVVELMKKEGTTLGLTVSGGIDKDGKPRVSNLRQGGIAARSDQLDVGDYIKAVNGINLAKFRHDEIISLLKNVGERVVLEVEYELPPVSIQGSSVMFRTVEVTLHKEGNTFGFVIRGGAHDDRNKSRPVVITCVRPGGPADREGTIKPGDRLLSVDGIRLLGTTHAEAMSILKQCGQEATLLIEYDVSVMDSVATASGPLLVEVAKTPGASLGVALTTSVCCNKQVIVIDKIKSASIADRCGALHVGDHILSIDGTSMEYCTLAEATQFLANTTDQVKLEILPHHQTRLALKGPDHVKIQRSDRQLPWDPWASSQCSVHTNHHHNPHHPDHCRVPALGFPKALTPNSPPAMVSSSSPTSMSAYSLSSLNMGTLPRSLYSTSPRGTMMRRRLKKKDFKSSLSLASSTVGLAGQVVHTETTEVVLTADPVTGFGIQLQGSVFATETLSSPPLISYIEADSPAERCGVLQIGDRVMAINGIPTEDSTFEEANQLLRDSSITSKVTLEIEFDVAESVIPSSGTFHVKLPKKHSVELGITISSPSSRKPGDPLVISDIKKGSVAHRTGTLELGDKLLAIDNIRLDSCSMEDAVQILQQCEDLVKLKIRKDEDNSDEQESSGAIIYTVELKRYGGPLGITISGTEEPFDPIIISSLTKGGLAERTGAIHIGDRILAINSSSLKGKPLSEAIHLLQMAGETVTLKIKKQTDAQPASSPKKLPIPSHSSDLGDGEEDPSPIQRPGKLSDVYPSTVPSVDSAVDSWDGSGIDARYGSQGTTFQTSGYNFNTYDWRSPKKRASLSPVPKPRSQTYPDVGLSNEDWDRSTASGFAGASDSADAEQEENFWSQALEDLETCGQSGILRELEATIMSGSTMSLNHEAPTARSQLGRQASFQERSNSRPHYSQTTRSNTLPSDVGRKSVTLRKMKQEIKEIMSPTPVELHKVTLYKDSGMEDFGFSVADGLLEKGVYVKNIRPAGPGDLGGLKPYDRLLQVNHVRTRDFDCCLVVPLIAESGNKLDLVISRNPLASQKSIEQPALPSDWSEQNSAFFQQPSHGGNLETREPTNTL

Row | GRASP1 co-precipitated with GRIP1, % WT (GFP-tagged GRIP1) [% WT] | GRASP1 co-precipitated with Rab4, % WT (GFP-tagged Rab4) [% WT] | GRASP1 co-precipitated with Stx13, % WT [1] [% WT] | Substance
1 | 42.6 | 34.8 | 62.7 | GRASP1 GBD deletion mutant (dGBD) (from UniProt Q8VD04 1-806) (natural protein)
2 | 43.7 | 105 | 83.2 | GRASP1 R822Q (intellectual disability mutant) (from UniProt Q8VD04 1-806) (natural protein)
3 | 206 | 98.2 | 553 | GRASP1 S73N (intellectual disability mutant) (from UniProt Q8VD04 1-806) (natural protein)
